# Several values for one entry are separate records, joined by “and”; a condition that tells them apart may be missing. Identical values can stand only once.
# Target: the molecule itself
# Assay: SEC; oligomeric forms of the separately purified proteins; Superdex 200 Increase 10/300 GL, 20 mM HEPES pH 7.5, 150 mM NaCl, 1 mM DTT (Fig. S1, A and B)
protein,measurement,value
"Get3(D57N), Saccharomyces cerevisiae (enzyme, S. cerevisiae, UniProt Q12154 1-354, looked up, Get3, S. cerevisiae, UniProt Q12154, full length, with D57N; Purified in dimeric and tetrameric forms; the dimer was used to form the complex with Get4/5; ATP and MgCl2 were present in the complex, cryo-EM and MST samples; also called D57N variant; ATPase-deficient D57N variant; source: E. coli Rosetta (DE3), purified (Ni-NTA, SEC)) MDLTVEPNLHSLITSTTHKWIFVGGKGGVGKTTSSCSIAIQMALSQPNKQFLLISTNPAHNLSDAFGEKFGKDARKVTGMNNLSCMEIDPSAALKDMNDMAVSRANNNGSDGQGDDLGSLLQGGALADLTGSIPGIDEALSFMEVMKHIKRQEQGEGETFDTVIFDTAPTGHTLRFLQLPNTLSKLLEKFGEITNKLGPMLNSFMGAGNVDISGKLNELKANVETIRQQFTDPDLTTFVCVCISEFLSLYETERLIQELISYDMDVNSIIVNQLLFAENDQEHNCKRCQARWKMQKKYLDQIDELYEDFHVVKMPLCAGEIRGLNNLTKFSQFLNKEYNPITDGKVIYELEDKE",stoichiometry N,2 and 4

# From publication PMC12506534 (The Journal of Biological Chemistry, 2025)
